Laboratory results published in publication PMC3229090 (Biochemistry, 2011).
Ends that are not written are not given here.

How the values were obtained:
[1] = measured previously; ref [20]; cited from earlier work
[2] = Reverse phase C18 HPLC elution as measure of hydrophobicity; assay type: physicochemical; settings: reverse phase C18, 30 min gradient from 99:1 A/B to 70:30 A/B, water/acetonitrile + 0.05% TFA, flow rate 1 ml/min
HeLa cells = assay: HeLa proliferation assay; assay type: cell-based, Human; settings: pH 6.0 and 7.4, treatment 3 hrs, data not shown

Substance	Log P of phalloidin-rhodamine [1]	HPLC elution time of phallotoxins [2] [min]	Antiproliferative effect at either pH (HeLa cells)
phalloidin-rhodamine	-0.05	–	–
phallacidin (AWLVDCP; also: cyclic peptide, R1 = H, R2 = COOH)	–	30.3	do not demonstrate an antiproliferative effect
